Reference: article PMC5192385

Biological target: depolymerase enzyme encoded by Klebsiella phage KP36 (depoKP36) (Klebsiella phage KP36)
Experiment: SEC-MALS; 2 mg of purified, non-aggregated protein on an S200 10/30 column in 200 mM NaCl, 25 mM HEPES, 5% glycerol, pH 7.8; flow 0.5 mL/min

Chain of depolymerase enzyme encoded by Klebsiella phage KP36 (depoKP36) (K9L8K6 whole entry): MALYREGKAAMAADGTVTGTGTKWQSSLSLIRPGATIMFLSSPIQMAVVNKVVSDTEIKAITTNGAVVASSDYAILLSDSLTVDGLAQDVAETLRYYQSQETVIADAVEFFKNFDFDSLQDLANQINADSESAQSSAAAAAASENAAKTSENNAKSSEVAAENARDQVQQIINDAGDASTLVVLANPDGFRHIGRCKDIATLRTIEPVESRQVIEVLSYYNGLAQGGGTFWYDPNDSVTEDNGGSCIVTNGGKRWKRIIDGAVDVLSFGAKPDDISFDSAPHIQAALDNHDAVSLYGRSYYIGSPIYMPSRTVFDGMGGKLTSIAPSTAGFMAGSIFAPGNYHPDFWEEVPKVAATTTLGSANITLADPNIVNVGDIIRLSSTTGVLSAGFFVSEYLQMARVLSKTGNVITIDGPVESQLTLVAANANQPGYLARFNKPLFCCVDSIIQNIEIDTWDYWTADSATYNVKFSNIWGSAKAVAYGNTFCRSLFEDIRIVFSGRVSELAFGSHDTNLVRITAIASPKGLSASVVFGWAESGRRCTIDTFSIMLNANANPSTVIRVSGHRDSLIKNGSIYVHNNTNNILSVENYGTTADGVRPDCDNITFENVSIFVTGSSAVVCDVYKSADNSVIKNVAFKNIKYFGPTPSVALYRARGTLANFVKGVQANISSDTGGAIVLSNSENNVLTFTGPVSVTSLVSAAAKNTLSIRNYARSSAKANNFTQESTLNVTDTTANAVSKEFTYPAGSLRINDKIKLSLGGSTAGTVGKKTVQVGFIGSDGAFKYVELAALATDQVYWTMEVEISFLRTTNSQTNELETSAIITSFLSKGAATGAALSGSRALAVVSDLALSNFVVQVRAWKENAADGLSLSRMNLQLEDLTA

depolymerase enzyme encoded by Klebsiella phage KP36 (depoKP36)
stoichiometry N: 3
